Data published in article PMC11077089, “Molecular basis of A. thaliana KEOPS complex in biosynthesizing tRNA t6A”.
Positions count from the first letter of the chain named.

Columns and labels:
Assay in all cases: EMSA; MST: 20 mM PBS pH 7.5, 300 mM NaCl, 0.05% Tween 20, 25 C, 50 nM RNA; EMSA: 20 mM Tris-HCl pH 7.5, 300 mM NaCl, 5 mM b-mercaptoethanol, 20% glycerol, agarose gel in Tris-glycine pH 8.0 (8.5 for FAM-RNA), 4 C
KAE1;PCC1 = target: T1, KAE1;PCC1 (Arabidopsis thaliana;Arabidopsis …, UniProt O49653;Q8GWD7 1-353;1-96, |); details: protein: recombinant;recombinant; tags: none (6His on partner PCC1);6His (C-term); chain copies: 2;2; label: 5' 6-FAM; tRNA cloverleaf
T1 sequence 1: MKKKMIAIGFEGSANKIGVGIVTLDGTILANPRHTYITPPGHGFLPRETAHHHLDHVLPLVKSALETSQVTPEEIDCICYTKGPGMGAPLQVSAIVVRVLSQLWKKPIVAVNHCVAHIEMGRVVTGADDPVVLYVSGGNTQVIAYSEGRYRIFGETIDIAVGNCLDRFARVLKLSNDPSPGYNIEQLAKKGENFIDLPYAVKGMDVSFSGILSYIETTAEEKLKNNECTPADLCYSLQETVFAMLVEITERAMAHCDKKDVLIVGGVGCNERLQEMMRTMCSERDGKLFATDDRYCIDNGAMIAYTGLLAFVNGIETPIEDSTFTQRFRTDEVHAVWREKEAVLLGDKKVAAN
T1 sequence 2: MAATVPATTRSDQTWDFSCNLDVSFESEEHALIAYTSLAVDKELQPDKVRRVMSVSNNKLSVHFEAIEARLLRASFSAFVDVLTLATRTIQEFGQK

CGI121 = target: T2, CGI121 (Arabidopsis thaliana, UniProt Q6NMZ4 1-172); details: protein: recombinant; tags: 6His (C-term); label: 5' 6-FAM; tRNA cloverleaf
T2 sequence: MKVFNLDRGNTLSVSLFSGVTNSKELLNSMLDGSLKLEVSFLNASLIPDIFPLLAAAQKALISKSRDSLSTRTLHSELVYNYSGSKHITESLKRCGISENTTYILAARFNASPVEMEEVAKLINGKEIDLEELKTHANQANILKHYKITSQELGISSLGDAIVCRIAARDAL

[1] = target: T3, KAE1;BUD32 R220stop;CGI121;PCC1 (Arabidopsis thaliana;Arabidopsis …, UniProt O49653;Q94K14;Q6NMZ4;Q8GWD7 1-353;1-219;1-172;1-96, |del220-226||); details: protein: recombinant;recombinant;recombinant;recombinant; tags: none (6His on partner PCC1);;6His (C-term);6His (C-term); chain copies: 2;2;2;2; label: 5' 6-FAM; tRNA cloverleaf
T3 sequence 1: T1 sequence 1
T3 sequence 2: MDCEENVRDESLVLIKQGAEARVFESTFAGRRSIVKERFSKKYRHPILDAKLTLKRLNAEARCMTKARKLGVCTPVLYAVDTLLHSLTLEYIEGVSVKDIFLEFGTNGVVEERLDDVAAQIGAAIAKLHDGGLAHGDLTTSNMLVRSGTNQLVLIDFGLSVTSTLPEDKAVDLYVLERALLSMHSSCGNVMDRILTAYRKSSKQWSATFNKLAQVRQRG
T3 sequence 3: T2 sequence
T3 sequence 4: T1 sequence 2

[2] = target: T4, KAE1;BUD32 L165K;CGI121;PCC1 (Arabidopsis thaliana;Arabidopsis …, UniProt O49653;Q94K14;Q6NMZ4;Q8GWD7 1-353;1-226;1-172;1-96, |L165K||); details: protein: recombinant;recombinant;recombinant;recombinant; tags: none (6His on partner PCC1);;6His (C-term);6His (C-term); chain copies: 2;2;2;2; label: 5' 6-FAM; tRNA cloverleaf
T4 sequence 1: T1 sequence 1
T4 sequence 2: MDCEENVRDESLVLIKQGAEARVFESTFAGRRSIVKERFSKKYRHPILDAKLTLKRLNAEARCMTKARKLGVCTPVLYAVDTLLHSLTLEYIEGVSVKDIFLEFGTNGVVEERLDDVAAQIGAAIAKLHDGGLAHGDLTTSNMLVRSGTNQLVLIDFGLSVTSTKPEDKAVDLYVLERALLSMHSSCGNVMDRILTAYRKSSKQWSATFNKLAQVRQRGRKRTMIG
T4 sequence 3: T2 sequence
T4 sequence 4: T1 sequence 2

[3] = target: T5, KAE1;BUD32 I47K;CGI121;PCC1 (Arabidopsis thaliana;Arabidopsis …, UniProt O49653;Q94K14;Q6NMZ4;Q8GWD7 1-353;1-226;1-172;1-96, |I47K||); details: protein: recombinant;recombinant;recombinant;recombinant; tags: none (6His on partner PCC1);;6His (C-term);6His (C-term); chain copies: 2;2;2;2; label: 5' 6-FAM; tRNA cloverleaf
T5 sequence 1: T1 sequence 1
T5 sequence 2: T4 sequence 2 with I47K, K165L
T5 sequence 3: T2 sequence
T5 sequence 4: T1 sequence 2

B1: 5'-6FAM-tRNAArgCCU (structured_RNA)
RNA: GCGCCUGUAGCUCAGUGGAUAGAGCGUCUGUUUCCUAAGCAGAAGGUCGUAGGUUCGACCCCUACCUGGCGCGCCA
binding result (KAE1;PCC1): no binding | binding result (CGI121): no binding | binding result [1]: binds | binding result [2]: binds | binding result [3]: binds
